The source of these data is patent publication US20230414703A1 (published 2023).

First the molecules themselves.
B1: mouse PD-1 receptor (receptor, UniProt Q02242 25-167, looked up)
chain: LEVPNGPWRSLTFYPAWLTVSEGANATFTCSLSNWSEDLMLNWNRLSPSNQTEKQAAFCNGLSQPVQDARFQIIQLPNRHDFHMNILDTRRNDSGIYLCGAISLHPKAKIEESPGAELVVTERILETSTRYPSPSPKPEGRFQ

Assay [1] concerns the target human PD-1 on Jurkat cells (human, UniProt Q15116 25-288). Description: cell-based or functional assay.
The target in the assay “mouse PD-1 receptor” is B1. The experiment in a line: BIACORE T-200 SPR, PD-1 immobilised on CM5, steady state. The protocol:
(§1) 12,000 response units (RU) of human and 6000 RU of mouse PD-1 receptors were directly immobilized on flow cell 2 and flow cell 4 of the CM5 chip by amine coupling method (EDC/NHS). The un-occupied sites were blocked with 1 M ethanol amine. […] Flow cell 1 was kept blank and used for reference subtraction. Binding of analyte to the ligand was monitored in real time.
(§2) Due to fast on rate and off rate, KD was determined by steady state equilibrium kinetics.
(§3) Chi square (χ2) analysis was carried out between the actual sensorgram and a sensorgram generated from the BIANALYSIS® software (black line) to determine the accuracy of the analysis. A χ2 value within 1-2 is considered significant (accurate) and below 1 is highly significant (highly accurate).
On the technique in general: In SPR one partner is held on a chip, and binding of the other changes the refractive index at the surface.

In assay [2] the target is T1, soluble recombinant human PD-1 receptor (human, UniProt Q15116 25-167, limits assumed).
T1 construct: also called human PD-1 receptors
T1 sequence (Q15116 25-167 limits assumed): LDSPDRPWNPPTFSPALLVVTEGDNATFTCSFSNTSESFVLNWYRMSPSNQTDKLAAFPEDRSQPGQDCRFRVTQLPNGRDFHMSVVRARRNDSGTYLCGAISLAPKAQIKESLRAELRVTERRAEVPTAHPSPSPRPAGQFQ
Described as above. Here is the method: as §1, §2, §3

Assay [3] has as its target T1, soluble recombinant human PD-1 receptor. Description: clonal phage ELISA, peptide on phage, PD-1 coated well. An excerpt: The TriCo-20™ (TRICO-20™) and TriCo-16™ (TRICO-16™) Phage Display Peptide Libraries (Creative Biolabs, 45-1 Ramsey Road, Shirley, NY 11967) were screened to identify binders of soluble recombinant human PD-1 receptor.
(In general: An ELISA detects its analyte on a solid surface through an enzyme-linked reagent.)

The target in another assay is Mouse PD-L1 (mouse, UniProt Q9EP73 19-239, limits assumed). Description: BIACORE T-200 SPR, PD-1 immobilised on CM5, steady state.
Mouse PD-L1, sequence (Q9EP73 19-239 limits assumed): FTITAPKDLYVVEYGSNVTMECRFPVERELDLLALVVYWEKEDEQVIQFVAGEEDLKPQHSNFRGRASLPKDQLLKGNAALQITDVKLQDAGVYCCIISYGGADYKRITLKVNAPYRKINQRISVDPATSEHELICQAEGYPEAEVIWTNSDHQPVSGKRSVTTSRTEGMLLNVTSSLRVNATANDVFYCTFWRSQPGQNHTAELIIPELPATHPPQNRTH

human PD-1 on Jurkat cells, sequence (Q15116 25-288): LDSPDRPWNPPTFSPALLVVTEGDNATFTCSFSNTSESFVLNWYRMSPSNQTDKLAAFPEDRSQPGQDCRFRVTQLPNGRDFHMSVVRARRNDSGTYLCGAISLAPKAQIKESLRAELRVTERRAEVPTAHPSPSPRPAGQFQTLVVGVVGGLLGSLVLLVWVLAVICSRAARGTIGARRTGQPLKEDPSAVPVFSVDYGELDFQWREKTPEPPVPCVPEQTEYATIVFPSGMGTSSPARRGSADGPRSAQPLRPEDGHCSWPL

In general, Kd refers to the free concentration of one partner at which half of the binding sites on the other are occupied at equilibrium, for simple one-to-one binding. QTRTVPMPKIHHPPWQNVVP (Found by phage display) [peptide QP20]: the “peak-fold inhibition (luciferase reporter expression)” value (shortened to “peak-fold inhibition”) in assay [1] is roughly 1.5 fold. Further, the Ka with mouse PD-1 receptor stood at 18000 M⁻¹; in assay [2], 93600 M⁻¹. For the same molecule, the Kd in the assay with mouse PD-1 receptor came to 55.4 µM; in assay [2] it was 10.7 µM. In assay [3], the “Clonal Phase ELISA coated signal” value was 0.851.
On to WNLPASFHNHHIRPHEHEWIQ (also called WQ-21) [peptide WQ20], for which the “peak-fold inhibition” value in assay [1] is roughly 1.5 fold. For the same molecule, the Ka with mouse PD-1 receptor worked out at 1310 M⁻¹; in assay [2], 3280 M⁻¹. For the same molecule, the dissociation constant Kd in the assay with mouse PD-1 receptor came to 761 µM; in assay [2], 305 µM. Also, in assay [3], the “Clonal Phase ELISA coated signal” value is 0.275.
As to SSYHHFKMPELHFGKNTFHQ (Found by phage display) [peptide SQ20], in assay [1], the “peak-fold inhibition” value was roughly 1.5 fold. The Ka in the assay with mouse PD-1 receptor is 21400 M⁻¹; in assay [2], 194000 M⁻¹. Further, the Kd stood at 46.8 µM in the assay with mouse PD-1 receptor and 5.16 µM in assay [2]. Further, the “Clonal Phase ELISA coated signal” value in assay [3] stood at 0.284.
For the molecule HHHQVYQVRSHWTGMHSGHD (Found by phage display) [peptide HD20], in assay [1], the “peak-fold inhibition” value was roughly 1.5 fold. Besides, in the assay with mouse PD-1 receptor, the Ka is 4250 M⁻¹ and binding was put at a Kd of 235 µM. Besides, in assay [2], the Ka was found to be 318000 M⁻¹ and the Kd stood at 3.41 µM. The “Clonal Phase ELISA coated signal” value in assay [3] was 0.281.
In the assay with Mouse PD-L1, B1 had a Ka of 2.75e+06 M⁻¹ and a Kd of 364 nM.
